# From paper PMC12362333
# Experiments:
# [1] = molecular target: KDEL receptor (KDEL‐R) (mouse (endogenous in DRG neurons)) (UniProt Q99JH8)
# [2] = molecular target: KDEL receptor (KDEL‐R) (mouse (endogenous in DRG neurons)) (UniProt Q99JH8); remark: listed apart in the source
# [3] = molecular target: KDEL receptor (KDEL‐R) (mouse (endogenous in DRG neurons)) (UniProt Q99JH8); remark: listed apart in the source
# [4] = molecular target: KDEL receptor (KDEL‐R) (mouse (endogenous in DRG neurons)) (UniProt Q99JH8); remark: listed apart in the source
# [5] = molecular target: KDEL receptor (KDEL‐R) (mouse (endogenous in DRG neurons)) (UniProt Q99JH8); remark: listed apart in the source
# UniProt Q99JH8, sequence (Q99JH8 whole entry): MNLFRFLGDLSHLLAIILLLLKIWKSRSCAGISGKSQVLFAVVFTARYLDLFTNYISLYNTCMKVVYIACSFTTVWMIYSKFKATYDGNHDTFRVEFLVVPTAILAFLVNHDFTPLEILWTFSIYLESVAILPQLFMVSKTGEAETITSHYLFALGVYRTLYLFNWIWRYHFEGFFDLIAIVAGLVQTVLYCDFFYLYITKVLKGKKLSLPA
neurite length of DRG explants after 72 h (Figure 1B) [1] [μm],"neuritic area of DRG explants after 72 h, CDNF-ΔKTEL 1.8 and 18 μg/mL (Figure 1C) [2] [μm^2]","neurite length in dissociated DRG cell cultures, CDNF-ΔKTEL 18 μg/mL, 3 days (Figure 7B) [3] [μm]","neurite length of DRG explants after NGF deprivation, CDNF-ΔKTEL 18 μg/mL for 48 h (Figure 3B) [4] [μm]","neurite length of DRG explants after 72 h, CDNF 1.8 and 18 μg/mL (Figure 1B) [1] [μm]","neuritic area of DRG explants after 72 h, CDNF 18 μg/mL (Figure 1C) [2] [μm^2]","neurite length in dissociated DRG cell cultures, CDNF 18 μg/mL, 3 days (Figure 7B) [3] [μm]","neurite length of DRG explants after NGF deprivation, CDNF 18 μg/mL for 48 h (Figure 3B) [4] [μm]",Substance,"viable cells by LDH release, DRG explants under trophic deprivation, CDNF-ΔKTEL (Figure 3E) [5] [%]","viable cells by LDH release, DRG explants under trophic deprivation, CDNF 18 μg/mL (Figure 3E) [5] [%]"
200,2.9e+06,< 200,200,–,–,–,–,CDNF‐ΔKTEL (CDNF without the last four residues KTEL) (domain or fragment),61,–
–,–,–,–,600,5.2e+06,390,500,cerebral dopamine neurotrophic factor (CDNF) (from UniProt Q49AH0 25-187) (ligand),–,75
